# Reference: patent US9566335
# Tests used:
# [1] = target: biotinylated peptide X-…(biotin), X = F; test: phage ELISA, biotinylated peptide on neutravidin; phage 10×
# [2] = target: biotinylated peptide X-…(biotin), X = Y; test: as above
# [3] = target: biotinylated peptide X-…(biotin), X = F; test: phage ELISA, biotinylated peptide on neutravidin
# [4] = target: biotinylated peptide X-…(biotin), X = Y; test: phage ELISA, biotinylated peptide on neutravidin
substance,measurement,setting,value
"Phage displayed wild-type E. coli ClpS (truncated wildtype ClpS polypeptide, FLAG-tagged, fused to phage coat protein p3) (from UniProt A7ZJU9 23-106)",phage ELISA signal (A450),[1],1.81
same,phage ELISA signal (A450),[2],1.08
same,phage ELISA signal (A450),[3],1.81
same,phage ELISA signal (A450),[4],1.08
